Results as given in FireProtDB (doi:10.1016/s0301-4622(99)00140-4).

Details: Bos taurus, pH 8, Thermal, DSC, Tris 10 mM, whole UniProt chain shown

B1: Alpha-lactalbumin wild type, P00711 (protein)
chain: MMSFVSLLLVGILFHATQAEQLTKCEVFRELKDLKGYGGVSLPEWVCTTFHTSGYDTQAIVQNNDSTEYGLFQINNKIWCKDDQNPHSSNICNISCDKFLDDDLTDDIMCVKKILDKVGINYWLAHKALCSEKLDQWLCEKL
Tm (CaCl2 0.0 mM): 64.1 °C | unfolding enthalpy (calorimetric) (CaCl2 0.0 mM): 64.8 kcal/mol | Tm (CaCl2 0.1 mM): 65.2 °C | unfolding enthalpy (calorimetric) (CaCl2 0.1 mM): 71.1 kcal/mol | Tm (CaCl2 1.0 mM): 67.9 °C | unfolding enthalpy (calorimetric) (CaCl2 1.0 mM): 75.6 kcal/mol | Tm (CaCl2 2.0 mM): 68.9 °C | unfolding enthalpy (calorimetric) (CaCl2 2.0 mM): 76 kcal/mol | Tm (CaCl2 10.0 mM): 70 °C | unfolding enthalpy (calorimetric) (CaCl2 10.0 mM): 75 kcal/mol
